In article PMC6172241, “A multisubstrate reductase from Plantago major: structure-function in the short chain reductase superfamily” (Scientific Reports, 2018) one finds Km, Vmax and kcat/Km data, which are given here for one protein.

Assay in all cases: purified protein
Substrate in series [1]: CC(C)=CCC/C(C)=C/C=O
The settings on record: 150 µM NADPH, 20 mM MOPS pH 7.0, 3% DMSO, geranial/neral mixture.

Substrate in series [2]: CC(=O)[C@H]1CC[C@H]2[C@@H]3CCC4=CC(=O)CC[C@]4(C)[C@H]3CC[C@]12C
The settings on record: 150 µM NADPH, 20 mM MOPS pH 7.0, 3% DMSO, substrate 10-200 µM (limited solubility), crystal structure with NAD+ at 2.7 Å, poor ligand density.

Substrate in series [3]: C/C(C=O)=C\CC/C(C)=C/C=O
The settings on record: 150 µM NADPH, 20 mM MOPS pH 7.0, 3% DMSO, reductive cyclisation to nepetalactol, crystal structure with NADP+ at 1.86 Å.

B1: PmMOR (P. major multisubstrate oxido-reductase) (Plantago major) (protein)
chain: MSWWWAGAIGAAKKRSDEDEALPKHSSVALIVGVTGIVGNSLAEILPLADTPSGPWKVYGVARRPRPAWNEDNPINYIRCDISDPKDTQEKLSPLTDITHVFYVTWANRSTEVERCEANGKMLKNVLDVVIPNCPDLKHISLQTGRKHYVGPFELIGKIETHDPPFTEDLPRLKFDNFYYTQEDLLFEEVEKKEGLTWSVHRPGNIFGFSPYSMMNLVGTLCVYAAICKHEGKVLRFPGCKAAWDGYSDCSDADLIAEHHIWAAVDPYAKNEAFNVSNGDVFKWKHFWKVLAEQFGVECGEYEEGENLKLQDLMKGKEPVWEEIVRENGLASTNLEDVAVWWFSDAVLDIPCPLDSMNKSKEHGFLGFRNSKNSFISWIDKAKAYKIVP
With B1, in “purified protein [1]”, the Km amounted to 82 ± 4.5 µM, the Vmax was found to be 0.00152 µmol/min and the kcat/Km was found to be 17000 M⁻¹ s⁻¹. Also, in “purified protein [2]”, the Km was determined as 28 ± 3.0 µM, the Vmax turned out to be 0.00014 µmol/min and the kcat/Km was 2100 M⁻¹ s⁻¹. Also, in the series “purified protein [3]”, the Km stood at 368 ± 37 µM, the Vmax came to 0.0053 µmol/min and the kcat/Km amounted to 2600 M⁻¹ s⁻¹.
